The source of these data is the RNAGym collection of RNA variant scans (doi:10.7554/elife.80360).

To fix the notation:
B1: HDV Ribozyme (parent)
chain: GGCCGGCAUGGUCCCAGCCUCCUCGCUGGCGCCGGCUGGGCAACAUUCCGAGGGGACCGUCCCCUCGGUAAUGGCGAAUGGGACCCA

The series covers variants of B1. The experiment in a line: self-cleavage, relative activity (ratio to wild type); higher = more cleavage; co-transcriptional.
Regarding GGCCGGCAUGGUCCCAGCCUCCUCGCUGACGCCGGCUGGGCAACAUUCCGAGGGGACCGUCCCCGCGGUAAUGGCGAAUGGGACCCA [G29A U65G], the self-cleavage came out at 0.166. The value for GGCCGGCAUGGUCCCAGCCUCCUCGCUGGCGCCGGCUGGGCAACAUUCCGAGGGGACCGUCCCCUCGGUAAUGGCGAAAGCGACCCA [U79A G81C] was 0.0504.

As to GGCCGGCAUGGUCCCAGCCUCCUCGCUGGCGCCGGCUGGGCAACAUUCCGAGGGGACCGUCCCCUCGCUAAUGGCGAAUGGGUCCCA [G68C A83U], the self-cleavage stood at 0.318.

For the variant GGCCGGCAUGGUCCCAGCCUCCUCCCUGGCGCCGGCUGGGCAACAUUCCGAGGGGACCGUCCCCUCGGUAAUGGCGAAUGGUACCCA [G25C G82U], the self-cleavage was 0.0755. In the case of GGCCGGCAUGGCCCCAGCCUCCUCGCUGGCGCCGGCUGGGCAACAUUCCGACGGGACCGUCCCCUCGGUAAUGGCGAAUGGGACCCA [U12C G52C] it was 0.287. In the case of GGCCGGCAUGAUCCCAGCCUCCUCGCUGGCGCCGGCUGGGCAACAUUCCGAGGGGACCGUCCCCACGGUAAUGGCGAAUGGGACCCA [G11A U65A] it was 0.396. The value for GGCCGGCAUGGUCCCAGCUUCCUCGCUGGCCCCGGCUGGGCAACAUUCCGAGGGGACCGUCCCCUCGGUAAUGGCGAAUGGGACCCA [C19U G31C] was 0.0845; that for GGCCGGCAUGGUCCCAGCCUCCUCGCUGGGGCCGGCGGGGCAACAUUCCGAGGGGACCGUCCCCUCGGUAAUGGCGAAUGGGACCCA [C30G U37G] was 0; that for GGCCGGCAUGGUCCCAGCCUGCUCGCUGGCGCCGGCUGGGCAUCAUUCCGAGGGGACCGUCCCCUCGGUAAUGGCGAAUGGGACCCA [C21G A43U] was 0. Regarding GGCCGGCAUGGUCCCAGCCUCCUCGCUGGCGCCGGCUGAGCAACAUUCCGAGGGGACCGUCCCCUCGGUAAUGUCGAAUGGGACCCA [G39A G74U], the self-cleavage worked out at 0.176. For GGCCGGCAUGGUCCCAGCCUCCUCGCUGGCGCCGGCUGGGCAGCAUUCCGAGGGGACCGUCCCCUCGGUAAUGGCUAAUGGGACCCA [A43G G76U], the self-cleavage was found to be 0.892. In the case of CGCCGGCAUGGUCCCAGCCUCCUCGCUGGCGCCGGCUGGGCAACAUUCCGAGAGGACCGUCCCCUCGGUAAUGGCGAAUGGGACCCA [G1C G53A] it was 0.193; in that of CGCCGGCAUGGUCCCAGCCUCCUCGCUGGCGCCGGCUGGGCAACAUUCCGAGGGGACCGUCCCCUCGGUAAAGGCGAAUGGGACCCA [G1C U72A], 0.32. As to GGCCGGGAUGGUCCCAGCCUCCUCGCUGGCGCCGGCUGGGCAACAUUCCGAGGGGACCGUACCCUCGGUAAUGGCGAAUGGGACCCA [C7G C61A], the self-cleavage stood at 0.486. Consider GGCCGGCAUGGUCCCAGCCUCCUCGCUGGCGCCGGCUGGGCAACAUUCCGAGGGGACCGUCCCCUCGGCAAAGGCGAAUGGGACCCA [U69C U72A], for which the self-cleavage is 0.499. In the case of GGCCGGCAUGGUCCCAGCCUCCUCGCUGGCGCCGGCUGGGCAACAUUCCGAGGGGACCGACCCGUCGGUAAUGGCGAAUGGGACCCA [U60A C64G] it was 0.954; in that of GGCCGGCAUGGUCCCAACCUGCUCGCUGGCGCCGGCUGGGCAACAUUCCGAGGGGACCGUCCCCUCGGUAAUGGCGAAUGGGACCCA [G17A C21G], 0.0415; in that of GGCCGGCAUGGUCCCAGCCUCCUCGCUGGCGCCAGCUGGGCAACAUUACGAGGGGACCGUCCCCUCGGUAAUGGCGAAUGGGACCCA [G34A C48A], 0.259.

As for GGCCGGCAUGUUCCCAGCCUCCUCGCUGGCGCCGGCUGGGCAACAUUCCGAGGGGACCGUCCCCUCGGUCAUGGCGAAUGGGACCCA [G11U A70C], the self-cleavage was 0.0536. In the case of GGCCGGCAUGGUCCCACCCUCCUCGCUGGCGCCGGCUGGGCAACAUUCAGAGGGGACCGUCCCCUCGGUAAUGGCGAAUGGGACCCA [G17C C49A], the self-cleavage worked out at 0.467.

For the variant GGCCGGCAUGGUCUCAGCCUCCUCGCUGGCGCCGGCUGGGCAACAUUCCGAGGGGACCGUCCCCUCGGUAAUGGCGAAGGGGACCCA [C14U U79G], the self-cleavage was 0.89. The value for GGCCGGCAUGGUCCCAGCCUCCUCGCUGGCGCCGGCUGGGCAACAUUCCGAAGGGACCGUCCCCUCGGUAAUGGCGAAGGGGACCCA [G52A U79G] was 0.718; that for GGCCGGCAUGGUCCCAGCCUCCUCGCUGGCGCCGGCUGGGCAACAUUUCGACGGGACCGUCCCCUCGGUAAUGGCGAAUGGGACCCA [C48U G52C] was 0.847; that for GGCCGGCAUGGUCCCAGCCUCCUCGCUGGCGCCGGCUGGGCAACAUUCCGAGGGGACCGUCCCGUCGGCAAUGGCGAAUGGGACCCA [C64G U69C] was 1.29.

Take GGCCGGCAUGGUCCCAGCCUCCUCGCUGGCGCCAGCUGGGCAACAUUCCGAGGGGACCGUCCCCUCGGUAAUGGUGAAUGGGACCCA [G34A C75U]: the self-cleavage was 0.086. In the case of GGCCGGCAUGGUCCCAGCCUCCUCGCUAGCGCCGGCUGGGCAUCAUUCCGAGGGGACCGUCCCCUCGGUAAUGGCGAAUGGGACCCA [G28A A43U] it was 0.0241; in that of GGCCGGCAUGGGCCCAGCCUCCUCGCUGGCGCCGGCUGGGCAACAUUCCGAGGGGACCGUCCCCUCGGUAAUGGCGAAUCGGACCCA [U12G G80C], 0.0791.

GGCCGGCAUGGUCCCAGCCUCCUCGCUGGCGCUGGCUGGGCAAGAUUCCGAGGGGACCGUCCCCUCGGUAAUGGCGAAUGGGACCCA [C33U C44G]: the self-cleavage was 0.453. Consider GGCCGGCAUGGUCCCAGCCUCCUCGCUGGCGCCGGCUGGGCAACAUUCCGAGGGGACCGUCCGCUCGGUAAUGGCGAAAGGGACCCA [C63G U79A], for which the self-cleavage is 0.856.

Take GGCCGGCAUGGUCCCAGCCUCCUCGCUGGCGCCGGCUGGGCAACAUUCCGAGGGGACCGUCCGCUCGGUAAUGGCGAACGGGACCCA [C63G U79C]: the self-cleavage is 0.697. In the case of GGCCGGCAUGGUCCCAGCCUCCUCGCUAGCGCCGGCUGGGCAACAUUCCGAGGGGACCGUCCCCUCGGUAAUGGCGAAUGGGGCCCA [G28A A83G] it was 0.0946; in that of GGCCGGCAUGGUCCCAGCCUCCUCGCUGGCGCCGGCUGGGCAACAUUCCGAGGGGACCGUACCCUCGGUAUUGGCGAAUGGGACCCA [C61A A71U], 0.784.
